Source: paper PMC4066111 (Nature, 2014)

B1: ycfD from Escherichia coli, full length, wild type (enzyme)
chain: MEYQLTLNWPDFLERHWQKRPVVLKRGFNNFIDPISPDELAGLAMESEVDSRLVSHQDGKWQVSHGPFESYDHLGETNWSLLVQAVNHWHEPTAALMRPFRELPDWRIDDLMISFSVPGGGVGPHLDQYDVFIIQGTGRRRWRVGEKLQMKQHCPHPDLLQVDPFEAIIDEELEPGDILYIPPGFPHEGYALENAMNYSVGFRAPNTRELISGFADYVLQRELGGNYYSDPDVPPRAHPADVLPQEMDKLREMMLELINQPEHFKQWFGEFISQSRHELDIAPPEPPYQPDEIYDALKQGEVLVRLGGLRVLRIGDDVYANGEKIDSPHRPALDALASNIALTAENFGDALEDPSFLAMLAALVNSGYWFFEG
B2: Mina53 (MYC-induced nuclear antigen), aa 26-465, wild type (enzyme)
chain: AAGGPSALNFDSPSSLFESLISPIKTETFFKEFWEQKPLLIQRDDPALATYYGSLFKLTDLKSLCSRGMYYGRDVNVCRCVNGKKKVLNKDGKAHFLQLRKDFDQKRATIQFHQPQRFKDELWRIQEKLECYFGSLVGSNVYITPAGSQGLPPHYDDVEVFILQLEGEKHWRLYHPTVPLAREYSVEAEERIGRPVHEFMLKPGDLLYFPRGTIHQADTPAGLAHSTHVTISTYQNNSWGDFLLDTISGLVFDTAKEDVELRTGIPRQLLLQVESTTVATRRLSGFLRTLADRLEGTKELLSSDMKKDFIMHRLPPYSAGDGAELSTPGGKLPRLDSVVRLQFKDHIVLTVLPDQDQSDEAQEKMVYIYHSLKNSRETHMMGNEEETEFHGLRFPLSHLDALKQIWNSPAISVKDLKLTTDEEKESLVLSLWTECLIQVV
B3: NO66 (Nucleolar protein 66), aa 183-641, wild type (enzyme)
chain: SPLRRVLAELNRIPSSRRRAARLFEWLIAPMPPDHFYRRLWEREAVLVRRQDHTYYQGLFSTADLDSMLRNEEVQFGQHLDAARYINGRRETLNPPGRALPAAAWSLYQAGCSLRLLCPQAFSTTVWQFLAVLQEQFGSMAGSNVYLTPPNSQGFAPHYDDIEAFVLQLEGRKLWRVYRPRVPTEELALTSSPNFSQDDLGEPVLQTVLEPGDLLYFPRGFIHQAECQDGVHSLHLTLSTYQRNTWGDFLEAILPLAVQAAMEENVEFRRGLPRDFMDYMGAQHSDSKDPRRTAFMEKVRVLVARLGHFAPVDAVADQRAKDFIHDSLPPVLTDRERALSVYGLPIRWEAGEPVNVGAQLTTETEVHMLQDGIARLVGEGGHLFLYYTVENSRVYHLEEPKCLEIYPQQADAMELLLGSYPEFVRVGDLPCDSVEDQLSLATTLYDKGLLLTKMPLALN

Legend:
crystal structure = target: the molecule itself; experiment: crystal structure
[1] = target: B3; experiment: cross-linking
[2] = target: L299C/C300S NO66 (aa 183-641) (human, UniProt Q9H6W3 183-641, L299C | C300S); experiment: cross-linking
Y209C Mina53 (aa 26-465) = Y209C Mina53 (aa 26-465) (human, UniProt Q8IUF8 26-465, Y209C); experiment: cross-linking

Row | Binder | binding result (crystal structure) | further results
1 | B1 | binds | 
2 | NPVEHPFGGGNHQHICKPST [rpL8 (205-224) G220C peptide] |  | binding result [1]: binds; binding result [2]: binds
3 | RGNAGCLHHHRINFDKYHP [rpL27a (32-50) G37C peptide] |  | binding result (Y209C Mina53 (aa 26-465)): binds
4 | B2 | binds | 
5 | B3 | binds | 
